Results from the DeepSol protein solubility set.

Assay: soluble on expression in E. coli; label from the status in PepcDB or PDB records

Sequence | soluble on expression in E. coli
MGSDKIHHHHHHMLAIEESQKLTLSNLPSLSLFTGTDQGQFEVMKSQMLKQIGYDSADLNFAYFDMKEVVYKDVELELVSLPFFADEKIVILDYFMDITTAKKRFLTDDELKSFEEYLDNPSPTTKLIIFAEGKLDSKRRLVKLLKRDAKAFDAVEVKEQELRQYFQKWSQKQGLQFTNHSFENLLIKSGFQFSEIQKNLLFLQSYKANSVIEEEDIVNAIPKTLQDNIFDLTQFILTKKMDQARDLVRDLTLQGEDEIKLIAVMLGQFRTFTQVKILAESGQTESQIASSLGSYLGRNPNPYQIKFALRDSRGLSLSFLKQAISYLIETDYQIKTGLYEKGFLFEKALLQIASQVN | not soluble
MLVFISNSRLSESEVQKLRDKHLIDDFIQRENKGYDFAAWHDGMEFVGFENLKQYDSVTVMNDTCFGPLWDMAPIYDNYESNPNVDFWGMTNHQGIKAGDIYIHEHLQSYFISFKKRLVESSVFQKFWKSVESFEDVQKVIDNYETLYTKKFRDAGFNYESILNTIPLNDKFFHSNFTIHYPHVLLDTGVPFIKVKTFDLTQHLAPYLLKEIEKRTDYPVELILSHMSDMSLPTPPYLLDRKVIEKSSQTYSDTKKIAVHLHTYYVDLLEDFLKQFENFHFTYDLFLTTDSEDKKAEIQSILDKNGKVARIFITGNRGRDVIPMLKLKDELSAYDYIGHFHTKKSPEYPYWVGDSWRNELFSMLIQPADNIIANLERDDRLGLVIADIPSFFRYTKIVDPWNENRFAEGMNDLWERMDLGRDIDFDKMNTFIMSYGTFIWFKYDALKPLFDLDLQDEEIPAEPIPQHTILHSIERILVYLAWARRYDYAIAKNDIYITPFVDNVVLNIRPDTLPNTYINFDNIGGIKGALKYIIVGPLEHHHHHH | not soluble
MTDEFKKSTANLKKAVPLMIKNHVAATPANYALWYTYVDKTIPELNFEMDEVLEHYGICPPAANKQLYNNYVASRAETSLEDLKTNVEVLLHEVSSSMSDTLSDTSSFSAMVDKSFNKLEKVEDNSLSIEEVMVVIRQLVAESHEIRHSTKFLNRQLTNASEEISR | not soluble
MSLIYSGKFRIGVQDEAALQMLHDPEKLGPCLPGVSSFERNDDGYSCKVRLDVSSMGSSYLSKISGKLAFSYLDSENRTIHVQGKGRIAGSSISFDLFISVNGGELIWKIDVNYGILIKMMGEEKIRDVTQANIDRSVKCLSSVLCQEGHHHHHH | soluble
CHEASAIGMKDTIGVGKGTVIFDDFEEADAIFVIGQNPGTNHPRMLEPLREAVKRGAQVICLNPLKERGLERFQNPQMPIEMLSNGSEPTNTAYLRPALGGDMAVFRGIAKFLLQWEREALQNGGKAVFDREFIKQHTIGIDEYLAEVDATSWEHIAEQSGLDLSEIEMVASMYRRAERVIMCWAMGLTQHRHSVPTIKEVANVQMLRGNVGKPGAGLSPVRGHSNVQGDRTMGIDEKPSDLLLDRIESRFNFD | not soluble
MPTVPFPILRLPNAILQRSLQQMSPIGLISLSVLSNNMKQIVTMPNNKSRFDGRISTTLPITLHLNVDRNSRHHYVEYAFQFNQSVLRIQDIRGQEPATLTKPGFTDKLWIEHVAEVLFQNKGVILSCDAPFRTYIKELLKNINVTLIAIRSSGFEVWKFFELFPSLEKVTFTEGPIPLSVLSRNLDGLKVNTKDVPLDDALTSNSLSFAMHRNSFTMKEINLFIKQWIRGCNPRLEMFQILFNDIERHLVLENVIFKGINYIEKRNRIVQCQEREEYRIERFDGTEALVWFNPNRFPFLEMTVMMNDDDDKLLV | not soluble
MFGMSVFHSVLERLKAEQAEELTNEARGGWRGTVIGAAPGFIAESSAHAWASRGAVEQAYRALAADERSEPFSMPDYLTRTSLAEVASELALGEAETALTLAAKRRRFAAANHPDRLPVEARVNATLRMKLANMLIDEALRRIEKPTVTG | not soluble
MQNTAHIIGAGISGLSAAVRLANAGFKVAVHEATHQAGGRCRSYFDGATNLTIDNGNHLLLSGNSHARAYARSIGTEAGLVGPESAQFPFVDIKTGQRWQIDLGTGRLPTWVLDESRRVPDTGLTDYLKLAPLIWASEETLVGKSIPTEGVLYQRLVQPLLLAALNVDPPEGSAGLAGAIVRETLLAGGQACRPLIARDGLSAVLIEPAVKFLQERGHSVQLGHELRAFVTSDGKAGALNFGGEDVIQLADGDVVVMAVPPRAAASLLPGLKTPTEFRAIVNAHFRFEPPPGSPPILGVIGGIVEWLFAFPNRLSVTISNGDRLVDMPREELAQAIWNDVCEAGGVSGELPPWQIVRERRATFAATPAQNALRPGPVTALKNLFLAGDWTATGLPATIEGSVRSGDRAADLVLAAQRPLEHHHHHH | not soluble
MGSDKIHHHHHHMWGYLQGKQVALKRNRVDLYHFGYMIRSKSARKLGTTTAQQIKDITDEIRAFLVKDHRDILSESFMNKEKRAAVEQIIKSFLLSNQVVISDVPSEQLLNMVCDDIVGFGIIEPLKEDQDVTDIYINGTKEIIYEKIGEGELTFPYRFETEEEVKALAYKMVNSTSESLNTAKPYVDCVFPYIRINIALDELGGLGTTITIRKNADHLRASEERMLSTNQASKEMLDFLAAAVKAKMNILVAGATGTGKSEFMKFLASHIPKGKKKERTLVVEDNPELYLHRIFPEHHFVPMQCRASEVEENAIDFDRLLTNALRQGPKRLIVGESRGKEALKMINFFQTGHPGFTSVHARSAIEAVRRLMLMCLQSGANIDAQYLYELISQTFDVIVFLEKKDDGNRYITEMIELLDYRGDIQFNELSQFIPTYEEQDEINESIGKIHGQHIITGKMSAKMEKKFRSATSVNPALYAPFLSQQEVQYA | not soluble
MGSDKIHHHHHHMRYSPEALIAFVETVSCGSFSAAARRLRKSQSTISIAIAHLEADLGFSLFDRSSRQPVLTEEGKRVLSYVQAILSASDRLDEVALTLSGETEARLTFVLSDTLHPDSLEELMAQFDRQFPHTEFECLIGENDDVIDLLQKGRAQIGLIEARDDYPTDIGAARLPVQSWMGVYVATTHPLASQTNLQWEQLHTWRELRLNTYLDSNANITRGPAWSAPNYLLLLSMAVQGFGWCVLPCALVEEFAAEKPLAQLDVPGWPRAIAIDLLWNKKTPPGTAGNWLRYHLQQK | not soluble
MRIELSIKADDSLVSFSHQHLLVGTLQKWLGENDMHGKSISYSFSRLNGGKLVSELNSILFADWANMFVSAHDPELIRRMLAGIRQDPEMFKSLCVREVTVIEDPDMTDREIFFPASPILLKRWREDNGFDHIVYTDEAANALLTENLRKKLQAVGIDDPTATASFVPDQGKAKVMLIDYRGVKNKASWCPIRIIGNAETKLFAWNAGIGNSTGIGFGAIK | not soluble
MGHHHHHHSHMSPDQFLLTVSALQHARNSGEFAYPCRPQTEITDVWGPSISYPRKVLNFKGKSIQRAVDRLRLSNPPIDVKRTSIPLEIQKLQPNLKISLHSPRAQSTIPEPMIIRSRFSGSLKGGDQVTSSIERAVCSTGPLTSMQVIKPNRMLAPQVGTATLSLKKERPRIYTALDPFRVNAEFVLLTVKEEKEHQEAKMKEYQARESTGVVDPGKASKAAWIRKIKGLPIDNFTKQGKTAAPELGQNVFI | soluble
MAETIISLLSPTLDIKSPYYFNPDYLHQFNMHTNTAIDKLSEAKDNYAIWKLRFFDLLQFTNKTGFIDGTLPKPDPSSPYYEPWKQCNAIVLHWLSNTVTDTLQNHVLQAETVHKAWEDLRRIFVPCIDFKIYELRQRLATLRQGGDSVAEYFGKLSKAWLELKAYDPVQECKCGGCDCESEKRATEAREKEQRYAFLMGLNKEFDYVKMKVMHKKIPPSVYQAYEMVVYSEAMMKWKMGGRI | soluble
MSLDSSISDEDTVTVRTAKQVALVVEGQIQNVTTTAVSVEDLLQEVGGITGADAVDADLSETIPESGLEHHHHHH | not soluble
MVQAFEPYIALNSHVRKPVIHISLNPSPKDILSKEQMTVLAQEFMEKFGYGNQPYIVWLHEDIDRKHMHIISVRINEKGEKIDHNREAIRAQNICRDMEVKYGLHSTLGEHSERELLSLQKVDYPKGDVKAQVKHTARTLLECYNCHSLAEYNTLLNLYNVTVYEVRGSVDGKEYYGIMYGALDDDGQQAGTPFKSSKFGKVFGYEALQKKFAATAEKVLEHHHHHH | not soluble
MGHHHHHHSHMRISPGQINQVRPKLPLLKILHAAGAQGEMFTVKEVMHYLGQYIMVKQLYDQQEQHMVYCGGDLLGELLGRQSFSVKDPSPLYDMLRKNLVTLATATT | not soluble
GPGSMPSITTAKREYEERLVDCLTKYSCVLFVGMDNVRSQQVHDVRRALRGKAEFMMGKKTLQAKIVEKRAQAKDASAEAKHFNDQCEEYNLLSGNTGLIFTNNAVQEITSVLDAHRVKAPARVGAISPCDVIVPAGSTGMEPTQTSFFQALNIATKIAKGMVEIVTEKKVLSVGDKVDNSTATLLQKLNISPFYYQVNVLSVWDRGVLFTREDLMMTEDMVEKMLMDGLS | not soluble
MGCLLFLLLWALLQAWGSAEVPQRLFPLRCLQISSFANSSWTRTDGLAWLGELQTHSWSNDSDTVRSLKPWSQGTFSDQQWETLQHIFRVYRSSFTRDVKEFAKMLRLSYPLELQVSAGCEVHPGNASNNFFHVAFQGKDILSFQGTSWEPTQEAPLWVNLAIQVLNQDKWTRETVQWLLNGTCPQFVSGLLESGKSELKKQVKPKAWLSRGPSPGPGRLLLVCHVSGFYPKPVWVKWMRGEQEQQGTQPGDILPNADETWYLRATLDVVAGEAAGLSCRVKHSSLEGQDIVL | soluble
MVLLVSQLYGCGDPLPEQRKLSHFDRIKAAGELRVLVRDKRFASSRPASGTAGFERDLLHGFASHLGVRLRFIPANARPVTERLLRGEADFAAMPSRSVAGEVLPTGGPPPFAGVTPVGGWVGALAGGLKGMARNSAQKFNPRMAFAEYSPRRVHTLKWAFPENAGVRGPRALAWMFAEPEGDHLAMMAEHFLRDMCERKGLDPLLDRHFGHNEGADPALDRNLRESYGRQLGKYRRTFVEAAARHGLDWRLLAAVAFQESRWDGHAVSAEGVRGMMMLTGATARELGVDRNNPGQSIHGGARYLKAVWSRLPEEIAEPDRTWFALSAYNLGPGRVETARRLAKKLGRDPNKWAEVKKTLPLVGAGRSGGRFRHPSARGKLTVQYVNRVRHYYDLLVRLEHHHHHH | soluble
MAAAREPELPQEAPATEPAPPPACRFFLEGRCRFGARCRQPHPGAPAPPGREAQPEAGAKKPPLRTAADVIQRIRWDPRLDPADFSVGYVDRFLGVREEPFSAFCWDQPLAALGPGVLAVPQHRVRFFRFHGRLVWDRASRTDLVFGSGSAAGRGPTILDAPNTEGAHGAEGAEWTLAGTGQEAQAAPKRGSTRPLCTGHQEPGVEEPGELEAAQERALGTAADLGTLAPRGRLAGVTEEALKPTAATRTTLLGGKEAQALGVPGGSAETTEAEWGPAAWPEDKRARLSVAAPCQPRPTHFVALMVTEPGLQAEVTKAQEYLVHVAPHCANFLVPSQNLHLTLALLRLAGAGEEAAAIGALRRALLAPGLNAPPRLSFRKLVLLGPHVLCAPPSPTLESMAQVLSQRLEAEGLSTLQSPGQLHPHLTVAKVPHGSQVHLPKLEFTLSQEVGCQPLQTLWLCRIGRTGGPFQPLAEIRLE | soluble
MGSDKIHHHHHHMELQVFTNEQFGEVRTATINNQIYFNLNDCCQILELSNPRKTIERLNKDGVTTSDIIDSLGRTQQANFINESNFYKLVFQSRKPEAEKFADWVTSEVLPSIRKHGAYMTEQTLEQALTSPDFLIRLANELKEEKERSRQLEAEKSILSVENMVMKPKADYFDDLVDRNLLTSFRETAKQLKVKERRFIQFLLDKKYVYRDKKGKLMPFADKNNGLFEVKESVNEKTNWAGTQTLITPKGRETFRLLFI | not soluble
